Measured values published in patent US20240190920A1, “BECLIN 1-TARGETED STAPLED PEPTIDE AND PHARMACEUTICAL COMPOSITION” (Shenzhen Research Institute of the Hong Kong Polytechnic …, priority 2021, published 2024).
Bridge positions count the residues as written; N and C are the ends. Square brackets hold non-standard residues; d marks the D form. R8 = C=CCCCCCC[C@@](C)(N)C(=O)O; S5 = C=CCCC[C@](C)(N)C(=O)O

B1: i7-01s-31 (Ac-[Tat]-VLFN(R8)[…](S5)RKV-NH2) (peptide)
peptide: Ac-YGRKKRRQRRRVLFN[R8]LVDVIK[S5]RKV-NH2
modifications: staple 16-23
SMILES: CC[C@H](C)[C@@H]1NC(=O)[C@H](C(C)C)NC(=O)[C@H](CC(=O)O)NC(=O)[C@H](C(C)C)NC(=O)[C@H](CC(C)C)NC(=O)[C@](C)(NC(=O)[C@H](CC(N)=O)NC(=O)[C@H](Cc2ccccc2)NC(=O)[C@H](CC(C)C)NC(=O)[C@@H](NC(=O)[C@H](CCCNC(=N)N)NC(=O)[C@H](CCCNC(=N)N)NC(=O)[C@H](CCCNC(=N)N)NC(=O)[C@H](CCC(N)=O)NC(=O)[C@H](CCCNC(=N)N)NC(=O)[C@H](CCCNC(=N)N)NC(=O)[C@H](CCCCN)NC(=O)[C@H](CCCCN)NC(=O)[C@H](CCCNC(=N)N)NC(=O)CNC(=O)[C@H](Cc2ccc(O)cc2)NC(C)=O)C(C)C)CCCCCCC=CCCC[C@@](C)(C(=O)N[C@@H](CCCNC(=N)N)C(=O)N[C@@H](CCCCN)C(=O)N[C@H](C(N)=O)C(C)C)NC(=O)[C@H](CCCCN)NC1=O
B2: i7-01s-54 (Ac-[Tat]-ALIQ(R8)[…](S5)RKR-NH2) (peptide)
peptide: Ac-YGRKKRRQRRRALIQ[R8]QEDVEK[S5]RKR-NH2
modifications: staple 16-23
SMILES: CC[C@H](C)[C@H](NC(=O)[C@H](CC(C)C)NC(=O)[C@H](C)NC(=O)[C@H](CCCNC(=N)N)NC(=O)[C@H](CCCNC(=N)N)NC(=O)[C@H](CCCNC(=N)N)NC(=O)[C@H](CCC(N)=O)NC(=O)[C@H](CCCNC(=N)N)NC(=O)[C@H](CCCNC(=N)N)NC(=O)[C@H](CCCCN)NC(=O)[C@H](CCCCN)NC(=O)[C@H](CCCNC(=N)N)NC(=O)CNC(=O)[C@H](Cc1ccc(O)cc1)NC(C)=O)C(=O)N[C@@H](CCC(N)=O)C(=O)N[C@]1(C)CCCCCCC=CCCC[C@@](C)(C(=O)N[C@@H](CCCNC(=N)N)C(=O)N[C@@H](CCCCN)C(=O)N[C@@H](CCCNC(=N)N)C(N)=O)NC(=O)[C@H](CCCCN)NC(=O)[C@H](CCC(=O)O)NC(=O)[C@H](C(C)C)NC(=O)[C@H](CC(=O)O)NC(=O)[C@H](CCC(=O)O)NC(=O)[C@H](CCC(N)=O)NC1=O

What was measured:
[1] = target: T1, Beclin 1 coiled coil domain (human Beclin 1, residues 176-268) (human), Q14457; test: ITC, compared with Tat-SP4
T1 sequence (Q14457 176-268 limits assumed): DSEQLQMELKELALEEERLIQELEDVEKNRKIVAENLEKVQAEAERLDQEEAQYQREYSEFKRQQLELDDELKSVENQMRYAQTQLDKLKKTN

[2] = target: T1, Beclin 1 coiled coil domain (human …); test: ITC, peptide titrated into Beclin 1 coiled coil domain, 25 C, one-site model

Binder | fold stronger binding affinity than Tat-SP4 [1] | Kd [2]
B1 | 10 fold | 0.33 µM
B2 | – | 311 µM
